Non-standard residues stand in square brackets, D forms with d. No end group written: not given here. pGlu = O=C1CC[C@@H](C(=O)O)N1
T1: synthetic peptide (epitope peptide) corresponding to the sequence from the N terminus to position 15 of CD3
T1 construct: also called XDGNEEMGGITQTPY
T1 peptide: [pGlu]DGNEEMGGITQTPY

B1: CE115VH-F760mnP17/rCE115VL-k0 (Rat anti-CD3 antibody) (antibody, human IgG1, kappa, N297A, V domains shown)
VH: EVQLVETGGSLVQPGKSLKLTCATSGFTFSNAWMHWVRQSPEKQLEWVAQIKAKSNNYATYYAESVKGRFTISRDDSKSNIYLQMNSLKEEDTAVYYCRYVHYGAYYGVDAWGQGTSVTVSS
VL: DVVMTQTPVSMSVSLGGQVSISCRSSQSLVHNNGNTYVSWYIQKPSQSPQLLIYKVSNRFSGISDRFSGSGSGTDFTLKISRVEPDDLGVYYCGQGTQDPYTFGAGTKLELKR
B2: AN121H-F760mnP17/GLS3000-k0 (AN121) (antibody, human IgG1, kappa, N297A, V domains shown)
VH: QVQLVESGGGLVQPGRSLRLSCAASGFTFSNAWMHWVRQAPGKGLEWVAQIKDKANGYNAYYAESVKGRFTISRDDSKNSIYLQMNSLKTEDTAVYYCRYVHYTTYAGFSYKFGVDAWGQGTTVTVSS
VL: DIVMTQSPLSLPVTPGEPASISCRSSQSLVHSNRNTYLHWYQQKPGQAPRLLIYKVSNRFSGVPDRFSGSGSGTDFTLKISRVEAEDVGVYYCGQGTQVPYTFGQGTKLEIKR
B3: CE115HA000-F760mnP17/GLS3000-k0 (Humanized anti-CD3 antibody) (antibody, human IgG1, kappa, N297A, V domains shown)
VH: QVQLVESGGGVVQPGRSLRLSCAASGFTFSNAWMHWVRQAPGKGLEWVAQIKAKSNNYATYYAESVKGRFTISRDDSKNSLYLQMNSLKTEDTAVYYCRYVHYGAYYGVDAWGQGTTVTVSS
VL: B2 VL
B4: CE115VH-F760mnP17/GLS3000-k0 (Combination of rat anti-CD3 antibody and human anti-CD3 antibody) (antibody, human IgG1, kappa, N297A, V domains shown)
VH: B1 VH
VL: B2 VL
B5: Anti-CD3 antibody Fab fragment (humanized anti-CD3 antibody) (Fab, V domains shown)
VH: B3 VH
VL: B2 VL
notes: Fab made by papain cleavage of a One-arm antibody

target: T2, CD3εδ heterodimer (Homo sapiens (Human), UniProt P07766 22-126; P04234 22-100); assay: SPR, Biacore T200; antibody captured on Protein G (CM3 chip), CD3εδ heterodimer as analyte, single cycle kinetics, 37 C
T2 construct: also called CD3ε8
T2 sequence (P07766 other isoform, or with tags, fused parts or gaps mutant limits assumed, chain 1 of 2): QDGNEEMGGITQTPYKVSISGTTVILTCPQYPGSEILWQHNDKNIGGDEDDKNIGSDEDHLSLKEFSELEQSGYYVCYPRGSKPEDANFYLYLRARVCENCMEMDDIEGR
T2 sequence (P04234 other isoform, or with tags, fused parts or gaps mutant limits assumed, chain 2 of 2): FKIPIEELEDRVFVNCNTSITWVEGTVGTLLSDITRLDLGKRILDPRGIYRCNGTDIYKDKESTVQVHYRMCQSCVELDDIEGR
Experimental: The activity of binding to the CD3εδ heterodimer was measured for: the rat anti-CD3 antibody containing as the variable region the heavy chain variable region (SEQ ID NO: 10) and the light chain variable region (SEQ ID NO: 11) described in Reference Example 1; a combination of a human anti-CD3 antibody and a rat anti-CD3 antibody which contains as the variable region a heavy chain variable region (SEQ ID NO: 12) and a light chain variable region (SEQ ID NO: 13) where the light chain has been humanized by a method known to those skilled in the art; a humanized anti-CD3 antibody which contains as the variable region a heavy chain variable region (SEQ ID NO: 12) and a light chain variable region (SEQ ID NO: 13), which have been humanized by a method known to those skilled in the art; and AN121 which contains as the variable region a heavy chain variable region (SEQ ID NO: 43) and a light chain variable region (SEQ ID NO: 13). The heavy chain variable regions were fused with F760mnP17 (SEQ ID NO: 39) used as the constant region and the light chain variable regions were fused with the Kappa chain (SEQ ID NO: 36) used as the constant region, and the antibodies were expressed according to the method of Reference Example 2.
The activity of binding to the CD3εδ heterodimer was assessed using BiacoreT200. Specifically, Protein G was immobilized onto a CM3 chip by a method known to those skilled in the art, and antibodies to be evaluated were bound to the immobilized Protein G. Then, the CD3εδ heterodimer prepared at 4000, 1000, 250, 62.5, 15.6, and 3.9 nM was bound thereto, and the binding was evaluated using the single cycle kinetics mode. Measurements were taken under conditions of 20 mM ACES, 150 mM NaCl, and pH7.4 at 37° C.

Kd	koff	kon	Binder
191 nM	0.00771 s⁻¹	40400 M⁻¹ s⁻¹	B1
9.68 nM	0.000723 s⁻¹	74700 M⁻¹ s⁻¹	B2
556 nM	0.0288 s⁻¹	51800 M⁻¹ s⁻¹	B3
262 nM	0.0124 s⁻¹	47300 M⁻¹ s⁻¹	B4

Target: T1, synthetic peptide (epitope peptide) …
Assay: X-ray crystal structure of the Fab with the epitope peptide
Experimental: Furthermore, a sample was prepared by adding, to the obtained anti-CD3 antibody Fab fragment, a synthetic peptide (epitope peptide) which corresponds to the sequence from the N terminus to position 15 of CD3 and shown in SEQ ID NO: 14 below: XDGNEEMGGITQTPY (X: L-pyroglutamic acid) (SEQ ID NO: 14) to become 2 mM. The vapor diffusion method was used to obtain crystals from the sample by allowing the sample to stand at 20° C. under reservoir conditions of 100 mM MES buffer at pH7.0, 0.91% PEG3350, and 1.0 M sodium citrate tribasic dihydrate. These crystals were subject to X-ray crystallography based on the above-mentioned crystal structure of the anti-CD3 antibody Fab fragment alone according to a method known to those skilled in the art to obtain the crystal structure of a complex of the anti-CD3 antibody Fab fragment and the epitope peptide from the diffraction intensity data at 25 to 3.5 angstrom resolution. Its crystallographic reliability factor R (R factor) and Free R value (R free) were 18.55% and 26.53%, respectively.

binding result	Binder
binds	B5
